Measurements from patent publication US11820827B2, “Methods of treating myelodysplastic syndrome and acute myeloid leukemia with nonfucosylated anti-CD70 antibodies” (Seagen Inc., priority 2019, dated 2023).

Test system: MOLM-13 CD70+ AML cell line
Test: CDC with normal human serum, MOLM-13
Type: cell-based
Conditions: normal human serum not heat inactivated
Experimental: AML cell lines positive for CD70 were fluorescently labeled and treated with increasing concentrations of CD70 directed antibodies. Cells were then exposed to human compliment and lysis determined as release of fluorescent dye.
The following protocol was used to assess CDC activity on AML cell lines: • 1. Cells were incubated with […] anti-CRP monoclonal antibodies mix (anti-hCD46, anti-hCD55, anti-hCD59) for 30 minutes on ice. • 2. Cells were washed and plated (200,000 cells/well) in media containing non-heat-inactivated serum, Sytox Green (Life technology), and antibodies, which were added at the indicated final concentration, for 2 hours at 37° C. • 3. Cell dead was quantified by detecting Sitox Green fluorescent signal on an Envison plate reader (Perkin Elmer) and normalized over positive control (1% Triton X-100 treated cells).

B1: SEA-CD70: humanized, nonfucosylated monoclonal IgG1 antibody targeting CD70 (nonfucosylated h1F6) (antibody, chains of the INN, looked up, V domains shown)
VH: QVQLVQSGAEVKKPGASVKVSCKASGYTFTNYGMNWVRQAPGQGLKWMGWINTYTGEPTYADAFKGRVTMTRDTSISTAYMELSRLRSDDTAVYYCARDYGDYGMDYWGQGTTVTVSS
VL: DIVMTQSPDSLAVSLGERATINCRASKSVSTSGYSFMHWYQQKPGQPPKLLIYLASNLESGVPDRFSGSGSGTDFTLTISSLQAEDVAVYYCQHSREVPWTFGQGTKVEIK
modifications: nonfucosylated
cell lysis by complement fixation: lysed in an antibody-specific, dose-dependent manner
